B1: Y123F (protein)
chain: MQLRNPELHLGCALALRFLALVSWDIPGARALDNGLARTPTMGWLHWERFMCNLDCQEEPDSCISEKLFMEMAELMVSEGWKDAGYEYLCIDDCWMAPQRDSEGRLQADPQRFPHGIRQLANFVHSKGLKLGIYADVGNKTCAGFPGSFGYYDIDAQTFADWGVDLLKFDGCYCDSLENLADGYKHMSLALNRTGRSIVYSCEWPLYMWPFQKPNYTEIRQYCNHWRNFADIDDSWKSIKSILDWTSFNQERIVDVAGPGGWNDPDMLVIGNFGLSWNQQVTQMALWAIMAAPLFMSNDLRHISPQAKALLQDKDVIAINQDPLGKQGYQLRQGDNFEVWERPLSGLAWAVAMINRQEIGGPRSYTIAVASLGKGVACNPACFITQLLPVKRKLGFYEWTSRLRSHINPTGTVLLQLENTMQMSLKDLL
B2: H125N (protein)
chain: MQLRNPELHLGCALALRFLALVSWDIPGARALDNGLARTPTMGWLHWERFMCNLDCQEEPDSCISEKLFMEMAELMVSEGWKDAGYEYLCIDDCWMAPQRDSEGRLQADPQRFPHGIRQLANYVNSKGLKLGIYADVGNKTCAGFPGSFGYYDIDAQTFADWGVDLLKFDGCYCDSLENLADGYKHMSLALNRTGRSIVYSCEWPLYMWPFQKPNYTEIRQYCNHWRNFADIDDSWKSIKSILDWTSFNQERIVDVAGPGGWNDPDMLVIGNFGLSWNQQVTQMALWAIMAAPLFMSNDLRHISPQAKALLQDKDVIAINQDPLGKQGYQLRQGDNFEVWERPLSGLAWAVAMINRQEIGGPRSYTIAVASLGKGVACNPACFITQLLPVKRKLGFYEWTSRLRSHINPTGTVLLQLENTMQMSLKDLL
B3: H125D (protein)
chain: MQLRNPELHLGCALALRFLALVSWDIPGARALDNGLARTPTMGWLHWERFMCNLDCQEEPDSCISEKLFMEMAELMVSEGWKDAGYEYLCIDDCWMAPQRDSEGRLQADPQRFPHGIRQLANYVDSKGLKLGIYADVGNKTCAGFPGSFGYYDIDAQTFADWGVDLLKFDGCYCDSLENLADGYKHMSLALNRTGRSIVYSCEWPLYMWPFQKPNYTEIRQYCNHWRNFADIDDSWKSIKSILDWTSFNQERIVDVAGPGGWNDPDMLVIGNFGLSWNQQVTQMALWAIMAAPLFMSNDLRHISPQAKALLQDKDVIAINQDPLGKQGYQLRQGDNFEVWERPLSGLAWAVAMINRQEIGGPRSYTIAVASLGKGVACNPACFITQLLPVKRKLGFYEWTSRLRSHINPTGTVLLQLENTMQMSLKDLL
B4: H125R (protein)
chain: MQLRNPELHLGCALALRFLALVSWDIPGARALDNGLARTPTMGWLHWERFMCNLDCQEEPDSCISEKLFMEMAELMVSEGWKDAGYEYLCIDDCWMAPQRDSEGRLQADPQRFPHGIRQLANYVRSKGLKLGIYADVGNKTCAGFPGSFGYYDIDAQTFADWGVDLLKFDGCYCDSLENLADGYKHMSLALNRTGRSIVYSCEWPLYMWPFQKPNYTEIRQYCNHWRNFADIDDSWKSIKSILDWTSFNQERIVDVAGPGGWNDPDMLVIGNFGLSWNQQVTQMALWAIMAAPLFMSNDLRHISPQAKALLQDKDVIAINQDPLGKQGYQLRQGDNFEVWERPLSGLAWAVAMINRQEIGGPRSYTIAVASLGKGVACNPACFITQLLPVKRKLGFYEWTSRLRSHINPTGTVLLQLENTMQMSLKDLL
B5: V124I (protein)
chain: MQLRNPELHLGCALALRFLALVSWDIPGARALDNGLARTPTMGWLHWERFMCNLDCQEEPDSCISEKLFMEMAELMVSEGWKDAGYEYLCIDDCWMAPQRDSEGRLQADPQRFPHGIRQLANYIHSKGLKLGIYADVGNKTCAGFPGSFGYYDIDAQTFADWGVDLLKFDGCYCDSLENLADGYKHMSLALNRTGRSIVYSCEWPLYMWPFQKPNYTEIRQYCNHWRNFADIDDSWKSIKSILDWTSFNQERIVDVAGPGGWNDPDMLVIGNFGLSWNQQVTQMALWAIMAAPLFMSNDLRHISPQAKALLQDKDVIAINQDPLGKQGYQLRQGDNFEVWERPLSGLAWAVAMINRQEIGGPRSYTIAVASLGKGVACNPACFITQLLPVKRKLGFYEWTSRLRSHINPTGTVLLQLENTMQMSLKDLL
B6: Y123S (protein)
chain: MQLRNPELHLGCALALRFLALVSWDIPGARALDNGLARTPTMGWLHWERFMCNLDCQEEPDSCISEKLFMEMAELMVSEGWKDAGYEYLCIDDCWMAPQRDSEGRLQADPQRFPHGIRQLANSVHSKGLKLGIYADVGNKTCAGFPGSFGYYDIDAQTFADWGVDLLKFDGCYCDSLENLADGYKHMSLALNRTGRSIVYSCEWPLYMWPFQKPNYTEIRQYCNHWRNFADIDDSWKSIKSILDWTSFNQERIVDVAGPGGWNDPDMLVIGNFGLSWNQQVTQMALWAIMAAPLFMSNDLRHISPQAKALLQDKDVIAINQDPLGKQGYQLRQGDNFEVWERPLSGLAWAVAMINRQEIGGPRSYTIAVASLGKGVACNPACFITQLLPVKRKLGFYEWTSRLRSHINPTGTVLLQLENTMQMSLKDLL
B7: Y123N (protein)
chain: MQLRNPELHLGCALALRFLALVSWDIPGARALDNGLARTPTMGWLHWERFMCNLDCQEEPDSCISEKLFMEMAELMVSEGWKDAGYEYLCIDDCWMAPQRDSEGRLQADPQRFPHGIRQLANNVHSKGLKLGIYADVGNKTCAGFPGSFGYYDIDAQTFADWGVDLLKFDGCYCDSLENLADGYKHMSLALNRTGRSIVYSCEWPLYMWPFQKPNYTEIRQYCNHWRNFADIDDSWKSIKSILDWTSFNQERIVDVAGPGGWNDPDMLVIGNFGLSWNQQVTQMALWAIMAAPLFMSNDLRHISPQAKALLQDKDVIAINQDPLGKQGYQLRQGDNFEVWERPLSGLAWAVAMINRQEIGGPRSYTIAVASLGKGVACNPACFITQLLPVKRKLGFYEWTSRLRSHINPTGTVLLQLENTMQMSLKDLL

System: mutant form of α-Gal A expressed in HEK-293 cells
Test: HEK assay (GLP HEK / Migalastat Amenability Assay): α-Gal A activity in lysates of transiently transfected HEK-293 cells incubated with or without 10 μM migalastat
Type: cell-based, human
Settings: for Absolute increase (% WT): 10 μM migalastat versus baseline; for Relative increase: 10 μM migalastat α-Gal A activity relative to baseline; for 10 μM migalastat α-Gal A activity (% WT): 5 days; for 10 μM migalastat α-Gal A activity (% WT) / Baseline α-Gal A activity (% WT): percentage of baseline wild-type α-Gal A activity; for 10 μM migalastat α-Gal A activity (% WT) / Baseline α-Gal A activity (% WT) / Baseline α-Gal A activity / 10 μM migalastat α-Gal A activity: mean ± SEM; for Baseline α-Gal A activity (% WT): absence of migalastat; for Baseline α-Gal A activity / 10 μM migalastat α-Gal A activity: lysates of HEK-293 cells transfected with the mutant form; for Baseline α-Gal A activity: incubated 5 days in the absence of migalastat; for 10 μM migalastat α-Gal A activity: incubated 5 days with 10 μM migalastat
Protocol: Such mutations or variants are also referred to herein as “HEK assay amenable” mutations or variants.
The α-Gal A activity is expressed as the nmoles of free 4-MU released per milligram of protein per hour (nmol/mg/hr).
In Table 7, values for the mean±standard error of the mean (SEM) were calculated. nmol/mg/hr indicates “nmoles of free 4-MU released per mg of protein per hour”. WT indicates “wild-type”. NC indicates “not calculable”. N/A indicates “not applicable”.

| Molecule | Absolute increase (% WT) | Relative increase | 10 μM migalastat α-Gal A activity (% WT) | Baseline α-Gal A activity (% WT) | Baseline α-Gal A activity [nmol/mg/h] | 10 μM migalastat α-Gal A activity [nmol/mg/h] |
| --- | --- | --- | --- | --- | --- | --- |
| B1 | 33.8 | 1.5 | 97.4 ± 3.4 | 63.6 ± 3.3 | 22066 ± 1408 | 33544 ± 1384 |
| B2 | 14.9 | 1.4 | 48.4 ± 2.7 | 33.5 ± 1.8 | 14162 ± 994 | 20228 ± 1240 |
| B3 | 6.5 | 3.3 | 8.8 ± 1.4 | 2.3 ± 0.2 | 995 ± 106 | 3282 ± 375 |
| B4 | 23.0 | 1.6 | 59.1 ± 1.9 | 36 ± 1.2 | 14738 ± 699 | 24004 ± 987 |
| B5 | 30.6 | 1.4 | 111.3 ± 4.5 | 80.7 ± 2 | 32074 ± 1858 | 43288 ± 2179 |
| B6 | 19.3 | 1.5 | 61 ± 3.6 | 41.7 ± 2.1 | 14556 ± 986 | 21255 ± 1484 |
| B7 | 19.7 | 1.5 | 60.6 ± 4.1 | 40.9 ± 3.2 | 13817 ± 816 | 20466 ± 846 |

Source: US11833164B2, “Methods of treating Fabry disease in patients having a mutation in the GLA gene” (Amicus Therapeutics, Inc., priority 2019, dated 2023)
